Experimental data published in patent US20160160263.

What was measured:
[1] = tested on: SNPYG-Y (SEQ ID NO: 23), MMP9 selective substrate
[2] = tested on: SNPYK-Y (SEQ ID NO: 21), MMP9 selective substrate
[3] = tested on: TIAH/LH, MMP2 selective substrate
[4] = tested on: RS-Q-G-(homoF)-YLY (SEQ ID NO: 71)
[5] = tested on: T1, YGRAAA (SEQ ID NO: 17), uPA selective substrate
T1 sequence: YGRAAA

Sequence of MMP-9 (chain, as listed by the source): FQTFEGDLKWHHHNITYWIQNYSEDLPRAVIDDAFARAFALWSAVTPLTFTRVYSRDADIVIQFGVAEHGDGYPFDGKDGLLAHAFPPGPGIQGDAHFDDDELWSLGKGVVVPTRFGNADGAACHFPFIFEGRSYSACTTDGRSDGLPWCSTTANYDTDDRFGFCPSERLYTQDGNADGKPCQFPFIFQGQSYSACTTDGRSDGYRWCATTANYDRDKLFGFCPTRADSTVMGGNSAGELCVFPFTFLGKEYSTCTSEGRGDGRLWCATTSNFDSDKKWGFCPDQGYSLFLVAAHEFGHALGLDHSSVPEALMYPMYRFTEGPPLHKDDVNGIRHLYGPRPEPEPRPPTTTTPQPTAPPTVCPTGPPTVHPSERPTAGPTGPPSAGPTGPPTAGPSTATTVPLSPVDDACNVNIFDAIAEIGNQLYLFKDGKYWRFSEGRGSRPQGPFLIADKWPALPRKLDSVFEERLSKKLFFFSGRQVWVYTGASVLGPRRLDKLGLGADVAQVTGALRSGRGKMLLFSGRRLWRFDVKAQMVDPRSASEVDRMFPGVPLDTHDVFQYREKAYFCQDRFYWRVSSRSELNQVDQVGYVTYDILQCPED

## MMP-9
[1]
  cleavage of ACPP substrate by protease (FAM/Cy5 ratiometric RACPP): MMP9 selective substrates
[2]
  cleavage of ACPP substrate by protease (FAM/Cy5 ratiometric RACPP): MMP9 selective substrates
[3]
  cleavage of ACPP substrate by protease: selectively cleaved by MMP-2 versus 9 and 14

## MT2-MMP
[4]
  cleavage of substrate by protease: Only RS-Q-G-(homoF)-YLY (SEQ ID NO: 71) shows significant cleavage by MT2-MMP

## urokinase plasminogen activator (uPA)
[5]
  cleavage of ACPP substrate by protease: efficiently cleaved by uPA
